The target of this data set is mouse NF-YA minimal domain;mouse NF-YB HFD;mouse NF-YC HFD (mouse;mouse;mouse, UniProt P23708-2;P63139;P70353 233-303;49-141;27-120, ||). Kind of data set: agarose EMSA; positive control; 32P EMSA: 20 mM Hepes pH 7.9, 50 mM NaCl, 5% glycerol, 5 mM MgCl2, 5 mM b-ME, 20 C; Cy5 agarose EMSA: 20 nM DNA, 20 mM Tris pH 7.5, 50 mM NaCl, 0.5 mM EDTA, 5 mM MgCl2, 2.5 mM DTT, 0.1 mg/ml BSA, 5% glycerol, 23 C. Conditions: protein: recombinant;recombinant;recombinant; tags: C-terminal His cleaved by thrombin;6His in dimer; untagged in purified trimer;; copies: 1;1;1; label: 5'-Cy5; blunt. (In general: A gel shift assay detects complexes by their altered migration in electrophoresis.)
Chain of mouse NF-YA minimal domain;mouse NF-YB HFD;mouse NF-YC HFD (P23708 261-331, chain 1 of 3): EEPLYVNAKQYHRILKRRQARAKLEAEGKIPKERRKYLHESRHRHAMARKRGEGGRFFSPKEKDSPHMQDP
Chain of mouse NF-YA minimal domain;mouse NF-YB HFD;mouse NF-YC HFD (P63139 49-141, chain 2 of 3): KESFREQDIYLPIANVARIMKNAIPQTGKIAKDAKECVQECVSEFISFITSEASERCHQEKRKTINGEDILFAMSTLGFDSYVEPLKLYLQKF
Chain of mouse NF-YA minimal domain;mouse NF-YB HFD;mouse NF-YC HFD (P70353 27-120, chain 3 of 3): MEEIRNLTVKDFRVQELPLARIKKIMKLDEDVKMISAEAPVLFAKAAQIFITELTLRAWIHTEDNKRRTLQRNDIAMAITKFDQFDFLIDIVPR

B1: HSP70 CCAAT 31 bp probe (dsDNA)
DNA 1: CTTCTGAGCCAATCACCGAGCTCGATGAGGC
DNA 2: GCCTCATCGAGCTCGGTGATTGGCTCAGAAG
As for B1, the binding result is recorded as “binds”.
